Assay results: PMC9536202

Key:
[1] = molecular target: MakA^W243D; test: SEC
[2] = molecular target: Motility associated killing factor A (MakA), wild type; test: SEC

Substance | percent oligomer [1] | percent monomer [2] | percent oligomer [2]
MakA^W243D (natural protein) | 100% | – | –
Motility associated killing factor A (MakA), wild type (natural protein) | – | 80% | 20%
